{
  "source": "paper PMC3326326",
  "molecules": {"B1": {"name": "TARE6 fragment 42 bp (F1) (dsDNA)", "DNA 1": "CCCAAGCTTACTTATATTAGGACCTATATTAGTTATCTGAGG", "DNA 2": "CCTCAGATAACTAATATAGGTCCTAATATAAGTAAGCTTGGG"}, "B2": {"name": "Actin-II (dsDNA)", "DNA 1": "TCTGAAGAAGCTGTTGCTTTAGTAGTTGATAATGGAAGTGGT", "DNA 2": "ACCACTTCCATTATCAACTACTAAAGCAACAGCTTCTTCAGA"}, "B3": {"name": "Scr F1 (dsDNA)", "DNA 1": "GTACTTACTCTAATCTAGTCGTAGTATGTATGCCTCAATGAA", "DNA 2": "TTCATTGAGGCATACATACTACGACTAGATTAGAGTAAGTAC"}, "B4": {"name": "TARE6 (79 bp) (dsDNA)", "DNA 1": "CCCAAGCTTACTTATATTAGGACCTATATTAGTTATCTGAGGACCTATATTACTTATTTTAGGACCTATATTGAATTCC", "DNA 2": "GGAATTCAATATAGGTCCTAAAATAAGTAATATAGGTCCTCAGATAACTAATATAGGTCCTAATATAAGTAAGCTTGGG"}, "B5": {"name": "HSP70 (dsDNA)", "DNA 1": "GCTAGTGCAAAAGGTTCAAAACCAAATTTACCAGAATCCAAT", "DNA 2": "ATTGGATTCTGGTAAATTTGGTTTTGAACCTTTTGCACTAGC"}},
  "key": {"[1]": {"target": "penta-His-tagged PfAlba3 (Plasmodium falciparum (3D7))", "test": "AUC"}, "[2]": {"target": "T1, PfAlba2 (Plasmodium falciparum 3D7, UniProt Q8IDN4 1-211)", "T1 sequence": "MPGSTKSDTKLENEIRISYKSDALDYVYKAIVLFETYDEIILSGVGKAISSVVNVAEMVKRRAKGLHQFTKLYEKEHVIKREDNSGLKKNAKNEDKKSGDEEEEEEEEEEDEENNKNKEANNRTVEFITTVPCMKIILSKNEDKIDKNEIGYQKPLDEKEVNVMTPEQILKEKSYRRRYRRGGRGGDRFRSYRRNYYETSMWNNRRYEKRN", "test": "EMSA"}, "[3]": {"target": "T2, PfAlba4 (Plasmodium falciparum 3D7, UniProt A0A5K1K8Y8 1-372)", "T2 sequence": "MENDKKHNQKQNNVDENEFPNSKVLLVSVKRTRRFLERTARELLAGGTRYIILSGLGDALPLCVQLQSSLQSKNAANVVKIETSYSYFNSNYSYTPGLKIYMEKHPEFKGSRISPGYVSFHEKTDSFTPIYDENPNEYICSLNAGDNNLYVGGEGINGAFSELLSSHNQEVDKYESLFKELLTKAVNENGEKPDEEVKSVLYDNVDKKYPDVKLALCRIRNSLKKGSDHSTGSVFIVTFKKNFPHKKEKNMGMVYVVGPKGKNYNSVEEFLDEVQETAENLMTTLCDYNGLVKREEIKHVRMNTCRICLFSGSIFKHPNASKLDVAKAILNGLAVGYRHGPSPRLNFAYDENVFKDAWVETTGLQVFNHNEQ", "test": "EMSA"}, "[4]": {"target": "T3, PfAlba3 (Plasmodium falciparum 3D7, UniProt Q8IJX8 1-107)", "T3 sequence": "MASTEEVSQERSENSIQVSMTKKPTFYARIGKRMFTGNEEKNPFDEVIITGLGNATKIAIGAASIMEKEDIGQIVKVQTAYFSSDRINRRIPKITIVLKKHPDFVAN", "test": "EMSA"}, "[5]": {"target": "T4, PfAlba1 (Plasmodium falciparum 3D7, UniProt Q8IAX8 1-248)", "T4 sequence": "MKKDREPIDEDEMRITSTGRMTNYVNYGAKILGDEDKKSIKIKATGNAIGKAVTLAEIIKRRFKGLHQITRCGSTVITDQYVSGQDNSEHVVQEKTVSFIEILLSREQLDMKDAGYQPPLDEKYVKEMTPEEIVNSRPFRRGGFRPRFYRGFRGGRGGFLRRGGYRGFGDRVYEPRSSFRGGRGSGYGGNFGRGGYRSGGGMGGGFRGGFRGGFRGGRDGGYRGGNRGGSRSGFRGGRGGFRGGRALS", "test": "EMSA"}, "[6]": {"target": "T2, PfAlba4", "test": "competition"}, "[7]": {"target": "T2, PfAlba4", "test": "competition", "remark": "listed apart in the source"}, "[8]": {"target": "T1, PfAlba2", "test": "EMSA", "remark": "listed apart in the source"}, "[9]": {"target": "T3, PfAlba3", "test": "EMSA", "remark": "listed apart in the source"}, "[10]": {"target": "T2, PfAlba4", "test": "competition", "remark": "listed apart in the source"}, "[11]": {"target": "T1, PfAlba2", "test": "EMSA", "remark": "listed apart in the source"}, "[12]": {"target": "T2, PfAlba4", "test": "EMSA", "remark": "listed apart in the source"}},
  "note": "Read-outs that look alike come from different tables or passages of the source.",
  "data": [
    {"molecule": "penta-His-tagged PfAlba3 (natural protein)", "values": [
      {"measurement": "stoichiometry N", "setting": "[1]", "result": 2}
    ]},
    {"molecule": "AAAAAAAAAAAAAAAAAAAAAA (ssRNA)", "note": "[polyA 22-mer]", "values": [
      {"measurement": "binding result", "setting": "[2]", "result": "binds"},
      {"measurement": "binding result", "setting": "[3]", "result": "binds"},
      {"measurement": "binding result", "setting": "[4]", "result": "binds"},
      {"measurement": "binding result", "setting": "[5]", "result": "binds"}
    ]},
    {"molecule": "B1", "values": [
      {"measurement": "binding result", "setting": "[6]", "result": "binds"}
    ]},
    {"molecule": "B2", "values": [
      {"measurement": "binding result", "setting": "[7]", "result": "binds"}
    ]},
    {"molecule": "B3", "values": [
      {"measurement": "binding result", "setting": "[7]", "result": "binds"}
    ]},
    {"molecule": "B4", "values": [
      {"measurement": "binding result", "setting": "[8]", "result": "binds"},
      {"measurement": "binding result", "setting": "[9]", "result": "binds"}
    ]},
    {"molecule": "B5", "values": [
      {"measurement": "binding result", "setting": "[7]", "result": "binds"}
    ]},
    {"molecule": "AAAAAAAAAAAAAAAAAAAAAA (ssRNA)", "note": "[polyA 22-mer, unlabeled]", "values": [
      {"measurement": "binding result", "setting": "[10]", "result": "binds"}
    ]},
    {"molecule": "UUUUUUUUUUUUUUUUUUUUUU (ssRNA)", "note": "[polyU 22-mer]", "values": [
      {"measurement": "binding result", "setting": "[11]", "result": "binds"},
      {"measurement": "binding result", "setting": "[12]", "result": "binds"}
    ]}
  ]
}
